{"source": "patent US20140271639A1", "about": "“Semaphorin 7a Induced Lung Fibrogenesis Occurs in a CD-4-Dependent, Macrophage Dependent Manner” (YALE UNIVERSITY, priority 2011, published 2014)", "test_system": "CD14+ monocytes", "experiment": "Sema 7a stimulation of CD14+ monocytes; CD206 expression via flow cytometry", "type": "cell-based, human", "description": "Antibodies against mouse F4/80, CD11b, and CD11c, and against human CD4, CD8, and CD14 were purchased from BD Pharmingen. CD206 antibody was purchased from Serotec. Semaphorin 7a antibody was obtained from R & D Systems. Appropriate isotype controls were obtained from BD Pharmingen. Flow cytometry and cell sorting were performed using a BD FACSCalibur. Data were analyzed using Flow Jo v 7.5 software (Tree Star, Inc, Ashland, Oreg.). For all analyses, isotype control staining was subtracted from true antibody staining to determine the percentage of positive cells. When necessary this percentage was then multiplied by the total cell count in the sample to derive absolute quantity of the cell population of interest.\nFicoll separation and processing of PBMCs for FACS was performed as we have previously described (Gan et al., 2011, Arthritis Rgeum. 63:2484-2494).\nCD14+ monocytes were obtained via MACS-enrichment as have been previously described. These cells were stimulated with recombinant Sema 7a (Abnova, Taiwan) or human serum albumin (Sigma) as previously described (Gan et al., 2011, Arthritis Rgeum. 63:2484-2494). Lentivirally-mediated shRNA knockdown of Plexin C1 expression was performed using specific anti-Plexin shRNA or control “scramble” shRNA (Santa Cruz Biotech, Santa Cruz […].) as previously described (Gan et al., 2011, Arthritis Rgeum. 63:2484-2494).", "data": [{"molecule": "recombinant Sema 7a protein: recombinant Sema 7a (Abnova, Taiwan) used to stimulate CD14+ monocytes (protein, UniProt O75326 45-648, looked up) Semaphorin-7A: QGHLRSGPRIFAVWKGHVGQDRVDFGQTEPHTVLFHEPGSSSVWVGGRGKVYLFDFPEGKNASVRTVNIGSTKGSCLDKRDCENYITLLERRSEGLLACGTNARHPSCWNLVNGTVVPLGEMRGYAPFSPDENSLVLFEGDEVYSTIRKQEYNGKIPRFRRIRGESELYTSDTVMQNPQFIKATIVHQDQAYDDKIYYFFREDNPDKNPEAPLNVSRVAQLCRGDQGGESSLSVSKWNTFLKAMLVCSDAATNKNFNRLQDVFLLPDPSGQWRDTRVYGVFSNPWNYSAVCVYSLGDIDKVFRTSSLKGYHSSLPNPRPGKCLPDQQPIPTETFQVADRHPEVAQRVEPMGPLKTPLFHSKYHYQKVAVHRMQASHGETFHVLYLTTDRGTIHKVVEPGEQEHSFAFNIMEIQPFRRAAAIQTMSLDAERRKLYVSSQWEVSQVPLDLCEVYGGGCHGCLMSRDPYCGWDQGRCISIYSSERSVLQSINPAEPHKECPNPKPDKAPLQKVSLAPNSRYYLSCPMESRHATYSWRHKENVEQSCEPGHQSPNCILFIENLTAQQYGHYFCEAQEGSYFREAQHWQLLPEDGIMAEHLLGHACALA", "values": [{"measurement": "response to Sema 7a stimulation (cell surface expression of CD206)", "setting": "IPF monocytes, p=0.16, FIGS. 6A and 6B", "result": "failed to respond"}, {"measurement": "increase in cell surface expression of CD206", "setting": "normal human monocytes, p=0.04, FIGS. 6A and 6B", "result": 94.3, "unit": "%"}]}]}
